Test results taken from article PMC3907554, “Crystal Structure of an (R)-Selective ω-Transaminase from Aspergillus terreus” (PLoS ONE, 2014).

Target: the molecule itself
Assay: crystal structure; X-ray, 1.63 Å, space group C222(1); crystals from Morpheus condition H02 (10% w/v PEG 8000, 20% v/v ethylene glycol, amino acid mix, 0.1 M MES/imidazole pH 6.5), 18°C; two chains in the asymmetric unit

B1: (R)-selective ω-transaminase from Aspergillus terreus (enzyme, UniProt Q0C8G1 1-325, looked up)
chain: MASMDKVFAGYAARQAILESTETTNPFAKGIAWVEGELVPLAEARIPLLDQGFMHSDLTYDVPSVWDGRFFRLDDHITRLEASCTKLRLRLPLPRDQVKQILVEMVAKSGIRDAFVELIVTRGLKGVRGTRPEDIVNNLYMFVQPYVWVMEPDMQRVGGSAVVARTVRRVPPGAIDPTVKNLQWGDLVRGMFEAADRGATYPFLTDGDAHLTEGSGFNIVLVKDGVLYTPDRGVLQGVTRKSVINAAEAFGIEVRVEFVPVELAYRCDEIFMCTTAGGIMPITTLDGMPVNGGQIGPITKKIWDGYWAMHYDAAYSFEIDYNERN
modifications: pyridoxal 5'-phosphate (PLP) covalently bound to Lys180 (internal aldimine), present in part; the other state is free Lys180 with a PLP-amino acid adduct (ligand code PGD)
notes: ω-(R)-transaminase from Aspergillus terreus, gene codon-optimized for E. coli; Cloned through NcoI and XhoI into pET28a(+); also called AT-ωTA; (R)-ω-transaminase; source: E. coli BL21-Gold(DE3), pET28a(+), purified (Ni Sepharose, SEC on Superdex 200); not shown: His-Tag, C-terminal, kept
  stoichiometry N: 2
